How the values were obtained:
[1] = molecular target: T1, CD47 on the surfaces of cells (human, UniProt Q08722 19-323); assay: cell-based or functional assay
CD47-His [2] = molecular target: T2, CD47-His (human, UniProt Q08722 19-139); assay: SPR (Biacore 8K), captured on Protein A chip, CD47-His as analyte
T2 construct: also called Human CD47-His; SIRPα-Fc fusion protein's ligand CD47-His
Experimental: Biacore is a method commonly used for molecular interaction analysis based on the principle of surface plasmon resonance (SPR for short). Here, Biacore was used to determine the affinity of the SIRP mutants described above and anti-CD47 antibodies for the extracellular end of CD47. Experimental method and procedure: The SIRP mutant or anti-CD47 antibodies were diluted to a concentration of 1 μg/mL with HBS-EP⁺ buffer (pH 7.4, purchased from Cytiva, catalog No. BR-1006-69). […] A 6 M solution of guanidine hydrochloride was used as a regeneration buffer. Sensor Chip Protein A (purchased from Cytiva, catalog No. 29-1275-55) was used to capture antibody on Biacore 8K (purchased from GE Healthcare). Then CD47-His was used as an analyte and allowed to flow over the chip, and an association-dissociation curve was obtained. After the chip was regenerated with the regeneration buffer, another cycle was carried out. The data were analyzed using Biacore 8K Evaluation Software.

[3] = molecular target: T1, CD47 on the surfaces of cells; assay: flow cytometry on Daudi cells, FITC anti-human Fc
Experimental: The binding capacity of the prepared SIRP-Fc-IgG1 mutants to CD47 on the surfaces of Daudi cells (human lymphoma cells) was determined by flow cytometry. Experimental procedure: After being counted, Daudi cells were inoculated into a 96-well round-bottom culture plate at 2E5 cells/150 μL by using a PBS solution containing 1% bovine serum albumin (BSA). To the 96-well plate described above were added 50 μL of SIRPα-Fc fusion protein mutants serially diluted with the PBS solution. The plate was incubated at room temperature for 1 h and then centrifuged, and the supernatant was discarded. Then the cells were washed twice with PBS. An FITC-labeled goat anti-human (Fc-Specific) antibody (1:1000 diluted with PBS containing 1% BSA) was added. The plate was incubated at room temperature for half an hour and centrifuged, and the cells were washed and then tested for mean fluorescence intensity (MFI) in the FITC channel on a flow cytometer (CytoFLEX Cytometer System, purchased from Beckman Coulter). The experimental data were processed using the software provided with the flow cytometer, and the mean fluorescence intensity was calculated. The data were analyzed and plotted in GraphPad Prism 6, and EC₅₀ was calculated.

CD47-His [4] = molecular target: T2, CD47-His; assay: ELISA, plate coated with CD47-His, anti-human Fc-HRP detection
Experimental: Method: Human CD47-His prepared in Example 1.3 was diluted to 100 ng/mL with a sodium carbonate buffer, and then the dilution was added to a microplate at 100 μL per well. The plate was incubated at room temperature for 2 h and washed with PBST. The plate was blocked by adding PBST containing 1% bovine serum albumin (BSA) to each well and incubated at room temperature for 1 h. The plate was washed twice with PBST, and serially diluted antibodies or fusion proteins were added. The plate was incubated for half an hour and washed twice with PBST. A properly diluted HRP-labeled goat anti-human (Fc-Specific) secondary antibody was added, and the plate was incubated for half an hour. After the plate was washed, a color developing solution was added for color development, and the color development was terminated with a stop solution. The OD450 was read using on a microplate reader. The data were analyzed in GraphPad Prism 6 and plotted, and EC₅₀ was calculated.

[5] = molecular target: T1, CD47 on the surfaces of cells; assay: cell-based or functional assay; remark: listed apart in the source

B1: anti-CD47B-Hu-IgG1 (antibody, V domains shown)
VH: QVQLVQSGAEVKKPGASVKVSCKASGYTFANHVIHWVRQAPGQGLEWMGYIYPYNDGTKYNEKFKDRVTLTSDKSTSTVYMELSSLRSEDTAVYYCARGGYYTYDDWGQGTLVTVSS
VL: DVVMTQSPLSLPVTLGQPASISCRSSQSLVHSNGKTYLHWYQQRPGQSPRLLIYKVSNRFSGVPDRFSGSGSGTDFTLKISRVEAEDVGVYYCSQSTHVPYTFGQGTKVEIKR
notes: Human IgG1 / kappa
ADCP of Daudi cells by human macrophages, EC50 [1]: 0.019 nM | ADCP of Daudi cells by human macrophages, Top (highest degree of ADCP by curve fitting) [1]: 12.5 | Kd (CD47-His [2]): 0.104 nM | koff (CD47-His [2]): 0.00012 s⁻¹ | kon (CD47-His [2]): 1.16e+06 M⁻¹ s⁻¹ | EC50 [3]: 0.189 nM | height of top plateau [3]: 3070 MFI | EC50 (CD47-His [4]): 0.0558 nM | height of top plateau (CD47-His [4]): 0.795 OD450 | ADCC on Daudi cells with human PBMCs, EC50 [5]: 0.197 nM | ADCC on Daudi cells with human PBMCs, Top (highest degree of ADCC by curve fitting) [5]: 29

— patent US20230312682A1 (published 2023)
